Assay results: paper PMC4156911
Where two headings read alike, the source gives them in different places.

B1: his pause ePEC scaffold (RNA-7604, tDNA 5420, ntDNA 5069) (mixed)
RNA: UCAUCCGGCGAUGUGUGCU
DNA 1: CTCTGAATCTCTTCCAGCACACATCAGGACGTACTGACC
DNA 2: GGTCAGTACGTCCATTCGATCTTCGGAAGAGATTCAGAG
modifications: pyrrolo-cytosine at RNA nt 5 (Z in the printed sequence)
B2: his pause ePEC scaffold + 8mer asRNA (RNA-6598) (mixed)
RNA 1: UCAUCCGGCGAUGUGUGCU
DNA 1: B1 DNA 1
DNA 2: B1 DNA 2
RNA 2: CCGGAUGA
modifications: pyrrolo-cytosine at RNA nt 5 (Z in the printed sequence)

Experiments:
[1] = target: T1, E. coli core RNA polymerase (wild-type) (Escherichia coli, UniProt P0A7Z4;P0A8V2;P0A8T7;P0A800 1-329;1-1342;1-1407;1-91); assay: EMSA
T1 sequence (P0A7Z4 whole entry, chain 1 of 3): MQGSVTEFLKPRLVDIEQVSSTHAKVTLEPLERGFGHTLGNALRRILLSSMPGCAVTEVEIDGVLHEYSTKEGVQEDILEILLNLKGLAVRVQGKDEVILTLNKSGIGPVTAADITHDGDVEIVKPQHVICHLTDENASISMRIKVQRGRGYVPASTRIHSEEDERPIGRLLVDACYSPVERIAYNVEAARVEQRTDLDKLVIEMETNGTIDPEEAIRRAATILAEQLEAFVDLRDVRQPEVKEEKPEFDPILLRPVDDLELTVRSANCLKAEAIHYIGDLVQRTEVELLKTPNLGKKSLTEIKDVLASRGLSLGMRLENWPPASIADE
T1 sequence (P0A8V2 whole entry, chain 2 of 3): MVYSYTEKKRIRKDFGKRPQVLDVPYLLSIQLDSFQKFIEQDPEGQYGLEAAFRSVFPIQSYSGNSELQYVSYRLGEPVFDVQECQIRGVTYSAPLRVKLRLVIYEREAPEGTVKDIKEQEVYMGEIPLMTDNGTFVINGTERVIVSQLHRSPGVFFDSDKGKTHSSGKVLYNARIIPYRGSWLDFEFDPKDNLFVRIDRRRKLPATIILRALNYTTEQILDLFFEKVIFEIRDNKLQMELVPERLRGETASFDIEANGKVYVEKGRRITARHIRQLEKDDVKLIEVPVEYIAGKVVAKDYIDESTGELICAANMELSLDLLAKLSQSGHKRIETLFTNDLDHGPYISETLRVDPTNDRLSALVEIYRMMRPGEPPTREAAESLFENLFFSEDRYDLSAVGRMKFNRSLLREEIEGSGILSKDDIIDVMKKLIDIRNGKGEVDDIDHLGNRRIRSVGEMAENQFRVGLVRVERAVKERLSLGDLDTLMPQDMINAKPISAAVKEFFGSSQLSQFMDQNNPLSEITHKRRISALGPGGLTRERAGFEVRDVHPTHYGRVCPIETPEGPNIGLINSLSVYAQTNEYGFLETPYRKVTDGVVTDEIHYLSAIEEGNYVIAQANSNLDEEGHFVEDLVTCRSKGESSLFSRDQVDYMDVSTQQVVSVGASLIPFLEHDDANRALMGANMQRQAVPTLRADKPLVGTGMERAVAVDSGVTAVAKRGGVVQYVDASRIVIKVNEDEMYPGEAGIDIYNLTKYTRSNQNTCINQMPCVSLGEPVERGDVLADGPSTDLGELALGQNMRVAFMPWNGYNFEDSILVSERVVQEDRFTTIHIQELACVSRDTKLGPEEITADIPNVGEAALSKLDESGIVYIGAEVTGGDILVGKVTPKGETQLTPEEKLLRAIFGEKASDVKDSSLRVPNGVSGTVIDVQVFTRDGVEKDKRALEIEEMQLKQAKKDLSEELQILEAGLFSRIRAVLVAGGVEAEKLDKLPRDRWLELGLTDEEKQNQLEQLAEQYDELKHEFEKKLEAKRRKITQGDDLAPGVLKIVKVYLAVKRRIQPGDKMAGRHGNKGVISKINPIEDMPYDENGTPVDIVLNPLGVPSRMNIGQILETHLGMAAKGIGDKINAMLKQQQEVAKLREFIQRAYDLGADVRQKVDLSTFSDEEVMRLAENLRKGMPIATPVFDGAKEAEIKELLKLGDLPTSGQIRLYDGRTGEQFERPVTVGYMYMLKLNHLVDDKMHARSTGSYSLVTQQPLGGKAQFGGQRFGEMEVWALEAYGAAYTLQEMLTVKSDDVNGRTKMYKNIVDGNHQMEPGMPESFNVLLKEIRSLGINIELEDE
T1 sequence (P0A800 whole entry, chain 4 of 3): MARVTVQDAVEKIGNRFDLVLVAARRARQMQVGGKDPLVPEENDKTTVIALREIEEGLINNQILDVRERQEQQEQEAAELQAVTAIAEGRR

[2] = target: T1, E. coli core RNA polymerase (wild-type); assay: EMSA; remark: listed apart in the source

| Binder | binding result [1] | binding result [2] |
| --- | --- | --- |
| B1 | binds |  |
| B2 |  | binds |
